Data on 13 molecules can be found in patent US20240141072A1 (published 2024).

The assay addresses T1, biotinylated human DLL3 protein expressed as a human IgG1 fusion protein (human, UniProt Q9NYJ7 27-492, limits assumed, biotinylated).
T1 sequence: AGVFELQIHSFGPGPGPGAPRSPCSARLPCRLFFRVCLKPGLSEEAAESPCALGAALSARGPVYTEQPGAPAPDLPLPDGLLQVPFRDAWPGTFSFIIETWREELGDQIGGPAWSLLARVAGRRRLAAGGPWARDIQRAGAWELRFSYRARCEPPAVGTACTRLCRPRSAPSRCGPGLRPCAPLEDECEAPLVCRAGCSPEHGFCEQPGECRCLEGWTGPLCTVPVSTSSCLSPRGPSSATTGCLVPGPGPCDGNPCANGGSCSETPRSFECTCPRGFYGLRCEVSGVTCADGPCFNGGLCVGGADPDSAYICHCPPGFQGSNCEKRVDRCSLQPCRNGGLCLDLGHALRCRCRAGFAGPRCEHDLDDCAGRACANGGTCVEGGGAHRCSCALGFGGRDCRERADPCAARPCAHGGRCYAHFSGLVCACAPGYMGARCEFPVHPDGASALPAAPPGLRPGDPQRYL
Put plainly: Octet BLI, single 50 nM. On the procedure:
Using the conditioned medium with known concentrations of the anti-DLL3 trispecific proteins, the binding affinities of the anti-DLL3 trispecific proteins toward human DLL3 protein were measured using a method where biotinylated version of human DLL3 protein were expressed as a human IgG1 fusion protein, and the binding affinity measurement was carried out in an Octet instrument with streptavidin tips.
For orientation: In BLI a coated tip is dipped into the sample, and binding shifts an interference pattern.

B1: 1D02 anti-DLL3 trispecific protein (other)
chain: EVQLVESGGGLVQPGGSLTLSCVASGSTSSINAMAWYRRAPGKQRELVAGISSNGSKVYADSVKGRFTISRDNAKNSVYLQMNSLRAEDTAVYYCYYFRQVSGSSMRYWGQGTLVTVSS
notes: not shown: linker 1808, anti-albumin sdAb, linker 1808, anti-CD3 fragment, His6 1819
Regarding B1, the Kd was found to be 14 nM.

B2: 1D09 anti-DLL3 trispecific protein (other)
chain: EVQLVESGGGLVQPGGSLTLSCVASGSTSSINAMAWYRRAPGKQRELVAGISSDGSKVYTDSVKGRFTISRDNAKNSVYLQMNSLRAEDTAVYYCYYFRTISGSSMRYWGQGTLVTVSS
notes: as for B1
Turning to B2, the Kd was 5.2 nM.

B3: 1D08 anti-DLL3 trispecific protein (other)
chain: EVQLVESGGGLVQPGGSLTLSCVASGLTSSINAMGWYRRAPGKQRELVAGISSDGSKVYADSVKGRFTISRDNAKNSVYLQMNSLRAEDTAVYYCYYFRMVSGSSMRYWGQGTLVTVSS
notes: as for B1
B3 displayed a Kd of 10 nM.

B4: 1D03 anti-DLL3 trispecific protein (other)
chain: EVQLVESGGGLVQPGGSLTLSCVASGSTSSINAIGWYRRAPGKQRELVAGISSDGSKVLADSVKGRFTISRDNAKNSVYLQMNSLRAEDTAVYYCYYFRIVSGSSMGYWGQGTLVTVSS
notes: as for B1
In turn, B4 returned a Kd of 5.8 nM.

B5: 1D06 anti-DLL3 trispecific protein (other)
chain: EVQLVESGGGLVQPGGSLTLSCVASGSTSSINAMGWYRRAPGKQRELVAGISSDNSKVYADSVKGRFTISRDNAKNSVYLQMNSLRAEDTAVYYCYYFRTVHGSSMRYWGQGTLVTVSS
notes: as for B1
B5: the Kd is 6.8 nM.

B6: 1D04 anti-DLL3 trispecific protein (other)
chain: EVQLVESGGGLVQPGGSLTLSCVASGSTSSKNAMGWYRRAPGKQRELVAGISSDGSKVYADSVKGRFTISRDNAKNSVYLQMNSLRAEDTAVYYCYYFRTVSGASMRYWGQGTLVTVSS
notes: as for B1
In turn, B6 registered a Kd of 9.7 nM.

B7: 1E05 anti-DLL3 trispecific protein (other)
chain: EVQLVESGGGLVQPGGSLTLSCVASGSTSVINAMAWYRRAPGKQRELAAGISSDGSKVYAKSAKGRFTISRDNAKNSVYLQMNSLRAEDTAVYYCYYFNTVSGSSMRYWGQGTLVTVSS
notes: as for B1
Molecule B7 returned a Kd of 14 nM.

B8: 1D010 anti-DLL3 trispecific protein (other)
chain: EVQLVESGGGLVQPGGSLTLSCVASGSTSSNNAMAWYRRAPGKQRELVAGISSDGSKVYTDSVKGRFTISRDNAKNSVYLQMNSLRAEDTAVYYCYYFRTRSGSSMRYWGQGTLVTVSS
notes: as for B1
As to B8, the Kd stood at 5 nM.

B9: 1E02 anti-DLL3 trispecific protein (other)
chain: EVQLVESGGGLVQPGGSLTLSCVASGQTSSINAMGWYRRAPGKQRELVAGISSDGSQVYADSVKGRFTISRDNAKNSVYLQMNSLRAEDTAVYYCYYFRTKSGSSMRYWGQGTLVTVSS
notes: as for B1
In turn, B9 had a Kd of 7 nM.

B10: 1E04 anti-DLL3 trispecific protein (other)
chain: EVQLVESGGGLVQPGGSLTLSCVASGSTSRINGMGWYRRAPGKQRELPAGISSDGSKAYADSVKGRFTISRDNAKNSVYLQMNSLRAEDTAVYYCYYFRTASGTSMRYWGQGTLVTVSS
notes: as for B1
Turning to B10, the Kd came to 8.1 nM.

B11: 1E07 anti-DLL3 trispecific protein (other)
chain: EVQLVESGGGLVQPGGSLTLSCVASGSTSSINAMAWYRRAPGKQRELVAGISSDGSKVYNDSVKGRFTISRDNAKNSVYLQMNSLRAEDTAVYYCYYFRTVRGSSQRYWGQGTLVTVSS
notes: as for B1
Regarding B11, the Kd is 7.1 nM.

B12: 1D011 anti-DLL3 trispecific protein (other)
chain: EVQLVESGGGLVQPGGSLTLSCVASGSTSSINAMAWYRRAPGKQRELVAGISSDNSKVYADSVKGRFTISRDNAKNSVYLQMNSLRAEDTAVYYCYYFRTVSGHSMRYWGQGTLVTVSS
notes: as for B1
The molecule B12 yielded a Kd of 4.4 nM.

B13: 1D012 anti-DLL3 trispecific protein (other)
chain: EVQLVESGGGLVQPGGSLTLSCVASGSTSHINAMGWYRRAPGKQRELVAGISSDGSRVYADSVKGRFTISRDNAKNSVYLQMNSLRAEDTAVYYCYYFRTVSGGSMRYWGQGTLVTVSS
notes: as for B1
On to B13, for which binding was characterised by a dissociation constant (Kd) of 9.3 nM.

The term Kd denotes the concentration at which binding is half-saturated. Higher therefore signals weaker binding.
